Reference: PMC11933685 (Nature Communications, 2025)

Target: T1, recombinant mouse neuropilin-1 (C-6His, #C11R; NRP-1) (mouse, UniProt P97333 22-856)
T1 sequence (looked up): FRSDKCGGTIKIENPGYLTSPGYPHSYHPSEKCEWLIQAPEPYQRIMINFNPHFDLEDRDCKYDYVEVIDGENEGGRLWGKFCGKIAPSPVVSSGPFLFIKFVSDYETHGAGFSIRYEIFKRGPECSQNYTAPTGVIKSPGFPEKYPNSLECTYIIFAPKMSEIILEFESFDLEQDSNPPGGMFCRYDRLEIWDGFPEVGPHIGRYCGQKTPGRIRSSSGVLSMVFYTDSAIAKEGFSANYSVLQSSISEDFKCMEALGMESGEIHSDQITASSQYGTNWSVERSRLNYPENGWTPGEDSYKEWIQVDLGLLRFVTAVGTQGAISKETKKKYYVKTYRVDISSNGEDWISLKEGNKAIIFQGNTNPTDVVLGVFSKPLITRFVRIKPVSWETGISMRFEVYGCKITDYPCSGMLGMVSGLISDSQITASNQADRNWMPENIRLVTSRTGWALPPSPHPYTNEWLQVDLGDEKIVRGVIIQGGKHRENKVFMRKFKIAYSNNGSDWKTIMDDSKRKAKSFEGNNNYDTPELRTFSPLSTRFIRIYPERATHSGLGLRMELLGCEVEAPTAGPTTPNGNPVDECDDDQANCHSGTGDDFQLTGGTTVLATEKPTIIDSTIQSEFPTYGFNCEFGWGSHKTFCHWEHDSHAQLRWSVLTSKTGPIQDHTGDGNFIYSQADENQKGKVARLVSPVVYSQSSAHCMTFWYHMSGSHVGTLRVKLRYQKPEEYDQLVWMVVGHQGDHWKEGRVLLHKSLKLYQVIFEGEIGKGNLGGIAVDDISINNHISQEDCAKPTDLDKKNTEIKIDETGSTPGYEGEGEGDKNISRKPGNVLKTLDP
Assay: SPR

CGNKRTR [cancer homing peptide (CHP, CGNKRTR), free peptide]
Kd: 6.49 µM
